Test results from PMC11711466, “Reconstitution of human DNA licensing and the structural and functional analysis of key intermediates” (Nature Communications, 2024).

Target: T1, human origin recognition complex hORC1-5 (human, UniProt Q13415 1-861; Q13416 1-577; Q9UBD5 1-711; O43929 1-436; O43913 1-435)
T1 construct: human origin recognition complex subunit 1 (hORC1); human origin recognition complex subunit 2 (hORC2); human origin recognition complex subunit 3 (hORC3); human origin recognition complex subunit 4 (hORC4); human origin recognition complex subunit 5 (hORC5); The Strep tag on hORC1 was kept for the pull-down; also called Strep-hORC1-5; hORC1-5WT; source: S. cerevisiae YC658, galactose-induced, …
Assay: cryo-EM structure; hOCCM from a low-salt washed pre-RC reaction with ATPγS, eluted from the DNA beads with DNaseI; 6.09 Å
Details: both partners purified

binding result: binds
B1: human MCM5 (natural protein, UniProt P33992 1-734, looked up)
chain: MSGFDDPGIFYSDSFGGDAQADEGQARKSQLQRRFKEFLRQYRVGTDRTGFTFKYRDELKRHYNLGEYWIEVEMEDLASFDEDLADYLYKQPAEHLQLLEEAAKEVADEVTRPRPSGEEVLQDIQVMLKSDASPSSIRSLKSDMMSHLVKIPGIIIAASAVRAKATRISIQCRSCRNTLTNIAMRPGLEGYALPRKCNTDQAGRPKCPLDPYFIMPDKCKCVDFQTLKLQELPDAVPHGEMPRHMQLYCDRYLCDKVVPGNRVTIMGIYSIKKFGLTTSRGRDRVGVGIRSSYIRVLGIQVDTDGSGRSFAGAVSPQEEEEFRRLAALPNVYEVISKSIAPSIFGGTDMKKAIACLLFGGSRKRLPDGLTRRGDINLLMLGDPGTAKSQLLKFVEKCSPIGVYTSGKGSSAAGLTASVMRDPSSRNFIMEGGAMVLADGGVVCIDEFDKMREDDRVAIHEAMEQQTISIAKAGITTTLNSRCSVLAAANSVFGRWDETKGEDNIDFMPTILSRFDMIFIVKDEHNEERDVMLAKHVITLHVSALTQTQAVEGEIDLAKLKKFIAYCRVKCGPRLSAEAAEKLKNRYIIMRSGARQHERDSDRRSSIPITVRQLEAIVRIAEALSKMKLQPFATEADVEEALRLFQVSTLDAALSGTLSGVEGFTSQEDQEMLSRIEKQLKRRFAIGSQVSEHSIIKDFTKQKYPEHAIHKVLQLMLRRGEIQHRMQRKVLYRLK
notes: Subunit of m6; also called hMCM5; source: HEK293-F, co-expressed hMCM2-7; in lysate (co-purification) and purified as hMCM2-7 (Ni-NTA, StrepTrapXT)
